Measured values: patent publication EP4628097A1 (Innovent Biologics (Suzhou) Co., Ltd., dated 2025)

Key:
[1] = molecular target: T1, human Ang2 (human, UniProt O15123 19-496, limits assumed); test: ELISA, relative binding activity; 120 mg/mL formula, 2-8 C, 6M
T1 construct: Bought proteins; also called hAng2-biotin; Ang2-Bio (Sino)
T1 sequence (looked up): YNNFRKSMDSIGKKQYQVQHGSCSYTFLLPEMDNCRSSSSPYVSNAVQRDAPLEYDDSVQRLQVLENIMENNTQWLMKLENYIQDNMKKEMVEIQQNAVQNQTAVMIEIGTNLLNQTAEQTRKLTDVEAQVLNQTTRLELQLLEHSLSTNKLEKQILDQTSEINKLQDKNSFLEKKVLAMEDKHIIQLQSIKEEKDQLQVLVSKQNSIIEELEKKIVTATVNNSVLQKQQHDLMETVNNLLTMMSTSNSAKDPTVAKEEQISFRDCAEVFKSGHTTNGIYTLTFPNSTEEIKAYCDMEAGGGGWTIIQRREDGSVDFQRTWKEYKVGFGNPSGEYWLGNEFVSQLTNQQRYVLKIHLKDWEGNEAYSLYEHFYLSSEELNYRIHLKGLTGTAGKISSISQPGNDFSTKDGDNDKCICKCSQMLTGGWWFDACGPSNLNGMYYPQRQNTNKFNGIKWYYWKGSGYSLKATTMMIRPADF

[2] = molecular target: T2, human VEGF165 (human, UniProt P15692-4 27-191); test: as above
T2 construct: all are put under this molecule; also called VEGF A; VEGFA

[3] = molecular target: T1, human Ang2; test: ELISA, relative binding activity; IEX04-012 about 40 mg/mL in F7, 40 C, 0 weeks
[4] = molecular target: T2, human VEGF165; test: as above
[5] = molecular target: T1, human Ang2; test: ELISA, relative binding activity; final formula 40 mg/mL, 25 C, 2M
[6] = molecular target: T2, human VEGF165; test: as above
[7] = molecular target: T1, human Ang2; test: ELISA, relative binding activity; 150 mg/mL formula, T0
[8] = molecular target: T2, human VEGF165; test: as above
[9] = molecular target: T1, human Ang2; test: ELISA, relative binding activity; IEX04-012 about 40 mg/mL in F8, 40 C, 2 weeks
[10] = molecular target: T2, human VEGF165; test: as above
[11] = molecular target: T1, human Ang2; test: ELISA, relative binding activity; IEX04-012 about 40 mg/mL in F7, 40 C, 2 weeks
[12] = molecular target: T2, human VEGF165; test: as above
[13] = molecular target: T1, human Ang2; test: ELISA, relative binding activity; 120 mg/mL formula, 25 C, 1M
[14] = molecular target: T2, human VEGF165; test: as above
[15] = molecular target: T1, human Ang2; test: ELISA, relative binding activity; IEX04-012 about 40 mg/mL in F2, 40 C, 1 week
[16] = molecular target: T2, human VEGF165; test: as above
[17] = molecular target: T1, human Ang2; test: ELISA, relative binding activity; IEX04-012 about 40 mg/mL in F6, 40 C, 2 weeks
[18] = molecular target: T2, human VEGF165; test: as above
[19] = molecular target: T2, human VEGF165; test: ELISA, relative binding activity; IEX04-012 about 40 mg/mL in F6, 40 C, 0 weeks
[20] = molecular target: T1, human Ang2; test: ELISA, relative binding activity; 120 mg/mL formula, 40 C, 2W
[21] = molecular target: T2, human VEGF165; test: as above
[22] = molecular target: T1, human Ang2; test: ELISA, relative binding activity; IEX04-012 about 40 mg/mL in F10, 40 C, 0 weeks
[23] = molecular target: T2, human VEGF165; test: as above
[24] = molecular target: T1, human Ang2; test: ELISA, relative binding activity; 120 mg/mL formula, 25 C, 3M
[25] = molecular target: T2, human VEGF165; test: as above
[26] = molecular target: T1, human Ang2; test: ELISA, relative binding activity; IEX04-012 about 40 mg/mL in F8, 40 C, 0 weeks
[27] = molecular target: T2, human VEGF165; test: as above

T2 sequence (P15692 other isoform, or with tags, fused parts or gaps limits assumed): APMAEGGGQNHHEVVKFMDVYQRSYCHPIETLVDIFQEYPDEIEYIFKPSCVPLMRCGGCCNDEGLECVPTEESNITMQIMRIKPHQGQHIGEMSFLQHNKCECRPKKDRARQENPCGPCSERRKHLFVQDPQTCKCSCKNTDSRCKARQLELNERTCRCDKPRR

B1: IEX04-012 (bispecific antibody)
chain: DIQLTQSPSSLSASVGDRVTITCSASQDISNYLNWYQQKPGKAPKVLIYFTSSLHSGVPSRFSGSGSGTDFTLTISSLQPEDFATYYCQQYSTVPWTFGCGTKVEIKGGGGSGGGGSGGGGSGGGGSEVQLVESGGGLVQPGGSLRLSCAASGYDFTHYGMNWVRQAPGKCLEWVGWINTYTGEPTYAADFKRRFTFSLDTSKSTAYLQMNSLRAEDTAVYYCAKYPYYYGTSHWYFDVWGQGTLVTVSSGGGGSGGGGSGGGGSEVQLLESGGGLVQPGGSLRLSCAASGFALDYYAIGWFRQAPGKGLEGVSCISSGEGSTYYADSVKGRFTISRDNSKNTVYLQMNSLRAEDTAVYYCATDSRGDDVACEGLRRNEYDYWGQGTLVTVSS
Relative binding Activity to Ang2 (ELISA, %) [1]: 96% | Relative binding Activity to VEGF A (ELISA, %) [2]: 99% | Relative binding Activity to Ang2 (ELISA, %) [3]: 100% | Relative binding Activity to VEGF (ELISA, %) [4]: 100% | Relative binding Activity to Ang2 (ELISA, %) [5]: 84% | Relative binding Activity to VEGF A (ELISA, %) [6]: 102% | Relative binding Activity to Ang2 (ELISA, %) [7]: 103% | Relative binding Activity to VEGF A (ELISA, %) [8]: 92% | Relative binding Activity to Ang2 (ELISA, %) [9]: 91% | Relative binding Activity to VEGF (ELISA, %) [10]: 102% | Relative binding Activity to Ang2 (ELISA, %) [11]: 87% | Relative binding Activity to VEGF (ELISA, %) [12]: 100% | Relative binding Activity to Ang2 (ELISA, %) [13]: 93% | Relative binding Activity to VEGF A (ELISA, %) [14]: 96% | Relative binding Activity to Ang2 (ELISA, %) [15]: 99% | Relative binding Activity to VEGF (ELISA, %) [16]: 98% | Relative binding Activity to Ang2 (ELISA, %) [17]: 89% | Relative binding Activity to VEGF (ELISA, %) [18]: 99% | Relative binding Activity to VEGF (ELISA, %) [19]: 100% | Relative binding Activity to Ang2 (ELISA, %) [20]: 81% | Relative binding Activity to VEGF A (ELISA, %) [21]: 113% | Relative binding Activity to Ang2 (ELISA, %) [22]: 100% | Relative binding Activity to VEGF (ELISA, %) [23]: 100% | Relative binding Activity to Ang2 (ELISA, %) [24]: 75% | Relative binding Activity to VEGF A (ELISA, %) [25]: 106% | Relative binding Activity to Ang2 (ELISA, %) [26]: 100% | Relative binding Activity to VEGF (ELISA, %) [27]: 100%
